In article PMC9675693, “Production and characterisation of modularly deuterated UBE2D1–Ub conjugate by small angle neutron and X-ray scattering” (European Biophysics Journal, 2022):

Biological target: the molecule itself
Assay: SDS-PAGE; purified hE2 on an SDS-PAGE gel; additional band of ~25 kDa

B1: human Ubiquitin-conjugating enzyme UBE2D1 with point mutations S22R, C85K and D87S, hydrogenated (enzyme)
chain: not shown
notes: Ubiquitin-conjugating enzyme UBE2D1, human, with S22R, C85K and D87S; In the SAS experiment (a1) K85 of this chain is joined by an isopeptide bond to G76 of dUb; also called hE2; not shown: His6, N-terminal, cleaved
binding result: binds
